The values below come from paper doi:10.1101/2023.06.21.546005 (bioRxiv, 2023).

This data set concerns the molecule itself. Kind of data set: crystal structure.

B1: Recombinant wild-type L-chain ferritin from horse spleen (natural protein, UniProt P02791 1-175, looked up)
chain: MSSQIRQNYSTEVEAAVNRLVNLYLRASYTYLSLGFYFDRDDVALEGVCHFFRELAEEKREGAERLLKMQNQRGGRALFQDLQKPSQDEWGTTLDAMKAAIVLEKSLNQALLDLHALGSAQADPHLCDFLESHFLDEEVKLIKKMGDHLTNIQRLVGSQAGLGEYLFERLTLKHD
With B1, the “stoichiometry N” value turned out to be 24.

B2: Fr-H114A (natural protein, horse, UniProt P02791 1-175, looked up)
chain: MSSQIRQNYSTEVEAAVNRLVNLYLRASYTYLSLGFYFDRDDVALEGVCHFFRELAEEKREGAERLLKMQNQRGGRALFQDLQKPSQDEWGTTLDAMKAAIVLEKSLNQALLDLAALGSAQADPHLCDFLESHFLDEEVKLIKKMGDHLTNIQRLVGSQAGLGEYLFERLTLKHD
Consider B2, for which the binding result is listed as “binds”.

B3: Fr-A115T (natural protein, horse, UniProt P02791 1-175, looked up)
chain: MSSQIRQNYSTEVEAAVNRLVNLYLRASYTYLSLGFYFDRDDVALEGVCHFFRELAEEKREGAERLLKMQNQRGGRALFQDLQKPSQDEWGTTLDAMKAAIVLEKSLNQALLDLHTLGSAQADPHLCDFLESHFLDEEVKLIKKMGDHLTNIQRLVGSQAGLGEYLFERLTLKHD
Turning to B3, the binding result is “binds”.

B4: Fr-A115V (natural protein, horse, UniProt P02791 1-175, looked up)
chain: MSSQIRQNYSTEVEAAVNRLVNLYLRASYTYLSLGFYFDRDDVALEGVCHFFRELAEEKREGAERLLKMQNQRGGRALFQDLQKPSQDEWGTTLDAMKAAIVLEKSLNQALLDLHVLGSAQADPHLCDFLESHFLDEEVKLIKKMGDHLTNIQRLVGSQAGLGEYLFERLTLKHD
As for B4, the binding result was “binds”.

B5: Fr-A115G (natural protein, horse, UniProt P02791 1-175, looked up)
chain: MSSQIRQNYSTEVEAAVNRLVNLYLRASYTYLSLGFYFDRDDVALEGVCHFFRELAEEKREGAERLLKMQNQRGGRALFQDLQKPSQDEWGTTLDAMKAAIVLEKSLNQALLDLHGLGSAQADPHLCDFLESHFLDEEVKLIKKMGDHLTNIQRLVGSQAGLGEYLFERLTLKHD
As to B5, the binding result is “binds”.

B6: Fr-S118A (natural protein, horse, UniProt P02791 1-175, looked up)
chain: MSSQIRQNYSTEVEAAVNRLVNLYLRASYTYLSLGFYFDRDDVALEGVCHFFRELAEEKREGAERLLKMQNQRGGRALFQDLQKPSQDEWGTTLDAMKAAIVLEKSLNQALLDLHALGAAQADPHLCDFLESHFLDEEVKLIKKMGDHLTNIQRLVGSQAGLGEYLFERLTLKHD
As for B6, the binding result was “binds”.

What is called stoichiometry N is a count of units in the complex or per binding partner.
